Results reported in PMC5584228.

Key:
[1] = biological target: Fc hole chain with F405K (Y349C/T366S/L368A/Y407V/F405K), of mutants KiHss-Kh, KiHss-AkKh and KiHss-KkKh (human); test: non-reducing SDS-PAGE of co-expressed chains; scFv-Fc chain (A) and Fc chain (B) co-transfected 1:1 in HEK 293H; secreted Fcs purified by Protein A; disulphide-linked dimers AA, AB and BB told apart by size and quantified by densitometry (ImageLab)
[2] = biological target: Fc hole chain of mutant KiHss (Y349C/T366S/L368A/Y407V) (human); test: as above

| Substance | heterodimeric Fc (AB), percent of total Fcs [1] [%] | heterodimeric Fc (AB), percent of total Fcs [2] [%] |
| --- | --- | --- |
| scFv-Fc knob chain of mutant KiHss (S354C/T366W) (Fc fusion) | > 80 | 73 |
| scFv-Fc knob chain with F405K (S354C/T366W/F405K), of mutants KiHss-Kk and KiHss-KkKh (Fc fusion) |  | > 80 |
| scFv-Fc knob chain of mutant KiHss-AkKh (S354C/T366W/K409A) (Fc fusion) | 94 |  |
